According to the nanobody polyreactivity screen of Harvey et al. (2022):

Experiment: yeast display, Sf9 membrane polyspecificity reagent, FACS + sequencing; frameworks hold sequencing errors
Outline: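 Galactose induction of a Saccharomyces cerevisiae BJ5465 synthetic nanobody display library ran 36–48 hours. The cells were then stained for 1 hour at 4 °C with 10% biotinylated, detergent-solubilized Sf9 membrane reagent, pulled down on streptavidin microbeads and FACS-sorted into low and high (top ~1%) gates on expression and reagent-binding fluorescence. Labels for polyreactivity follow the gate of origin.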

Sequence: QVQLVESGGGLVQAGGSLRLSCAASGLIFRAYAMGWYRQAPGKERELVAAISRNGGSTYYADSVKGRFTISRDNAKTTVYLQMNSLKPEDTAVYYCNKVSRSSVYLDYYYWGQGTQVTVSS
- polyreactivity (PSR sort gate): high polyreactivity

Sequence: QVQLVESGGGLVQAGGSLRLSCAASGLIFRAYAMGWYRQAPGKERELVAAITRSGGSTYYADSVKGRFTISRDNAKNTVDLQMNSLKPEDTAVYYCATAQWVGYWDDYWGQGTQVTVSS
- polyreactivity (PSR sort gate): high polyreactivity

Sequence: QVQLVESGGGLVQAGGSLRLSCAASGLIFRGYVMGWYRQAPGKERELVAAISRRGVNTYYADSVKGRFTISRDNAKNTFYLQMNSLKPEDTAVYYCNAYVHTQGGDYWGQGTQVTVSS
- polyreactivity (PSR sort gate): high polyreactivity

Sequence: QVQLVESGGGLVQAGGSLRLSCAASGLIFRHYAMGWYRQAPGKERELVAVISSGAGTYYADSVKGRFTISRDNAKNTVYLQMISMKPEDTAVYYSARDLYYRYRYFITGLYDSWGQGTQVTVSS
- polyreactivity (PSR sort gate): low polyreactivity

Sequence: QVQLVESGGGLVQAGGSLRLSCAASGLIFRIYAMGWYRQAPGKERELVAAISSTGSRTYYADSVKGRFTISRDNAKNTVYLQMNSLKPEDTAVYYCAAKAYINNYDYWGQGTQVTVSS
- polyreactivity (PSR sort gate): high polyreactivity

Sequence: QVQLVESGGGLVQAGGSLRLSCAASGLIFRKYAMGWYRQAPGKERELVAAISRSGGSTYYADSVKGRFTISRDNAKTTVYLQMNSLKPEDTAVYYGAAQQHYGDGYWGQGTQVTVSS
- polyreactivity (PSR sort gate): high polyreactivity

Sequence: QVQLVESGGGLVQAGGSLRLSCAASGLIFRLYAMGWYIQAPGKERELVAAISGGGGSTYYADSVKGRFTISRDNAKNTVYLQMNSLKPEDTAVYYCAATYSRGYWWSEYDYWGQGTQVTVSS
- polyreactivity (PSR sort gate): low polyreactivity

Sequence: QVQLVESGGGLVQAGGSLRLSCAASGLIFRNYAMGWYRQAPGKERELVAAISSGGDNTYYADSVKGRFTISRDNAKNTVYLQMNSLKPEDTAVYYCAAGRYVGPSYYAYGYWGQGTQVTVSS
- polyreactivity (PSR sort gate): high polyreactivity

Sequence: QVQLVESGGGLVQAGGSLRLSCAASGLIFRRYALGWYRQAPGKERELVAVISSGGRTYYADSVKGRFTISRDNAKNTVYLQMNSLKPEDTAVYYCAARTRSYWGTYGSYHYDYWGQGTQVTVSS
- polyreactivity (PSR sort gate): high polyreactivity

Sequence: QVQLVESGGGLVQAGGSLRLSCAASGLIFRSYAMGWYRQEPGKERELVARISIRGGSTYYADSVKGRFTISRDNAKNTVYLQMNSLKPEDTAVYYCAADYASWSNWGYEYWGQGTQVTVSS
- polyreactivity (PSR sort gate): high polyreactivity

Sequence: QVQLVESGGGLVQAGGSLRLSCAASGLIFRTYTMGWYRQAPGKERELVATITRRGGTTYYADSVKGRFTISRDNAKNTVYLQMNSLKPEDTAVYYCAKSPYYTWKYDYWGQGTQVTVSS
- polyreactivity (PSR sort gate): high polyreactivity

Sequence: QVQLVESGGGLVQAGGSLRLSCAASGLIFRWYAMGWSRQAPGKEWELVAAINYSGGRTYYADSVKGRFTISRDNAKNTVYLQMNSLKPEDTAVYYCAADGTYVWGSEEGNYWGQGTQVTVSS
- polyreactivity (PSR sort gate): low polyreactivity

Sequence: QVQLVESGGGLVQAGGSLRLSCAASGLIFRYNAMGWYRQAPGKEMELVASITSDGSTNYADSVKGRFTISRDNAKNTVYLQMNSLKPEDTAVYYCAADGYTYWYYQLIPDYDYWGQGTQVTVSS
- polyreactivity (PSR sort gate): low polyreactivity

Sequence: QVQLVESGGGLVQAGGSLRLSCAASGLIFRYYAMGWYRQAPGKERELVAAISYSGGRTYYADSVKGRFTISRDNAKNTVYLQMNSLKPEDTAVYYCAAVDRRGYRYALDYWGQGTQVTVSS
- polyreactivity (PSR sort gate): high polyreactivity

Sequence: QVQLVESGGGLVQAGGSLRLSCAASGLIFRYYAMGWYRQATGKEREFVAAITWRTGSTYYADSVKGRFTISRDNAKNTVYLQMNSLKPEDTAVYYCAARGGRRYDYWGQGTQVTVSS
- polyreactivity (PSR sort gate): high polyreactivity

Sequence: QVQLVESGGGLVQAGGSLRLSCAASGLIFSAYAMGWYRQAPGKERELVAGISRRGSTYYADSVKGRFTISRDNAKNTVYLQMNSLKPEDTAVYYCAAYFRVRFRASGYDYWGQGTQVTVSS
- polyreactivity (PSR sort gate): high polyreactivity

Sequence: QVQLVESGGGLVQAGGSLRLSCAASGLIFSDYAMGWYRQEPGKERELVAAIRSGGRTYYADSVKGRFTISRDNAKNTVYLQMNSLKPEDTAVYYCNKLYRRYPVPREYDYWGQGTQVTVSS
- polyreactivity (PSR sort gate): high polyreactivity

Sequence: QVQLVESGGGLVQAGGSLRLSCAASGLIFSGYTMGWYRQAPGKERELVAAISKSGGNTYYADSVTGRFTISRDNAKNTVYLQMNSLKPEDTAVYYCNRDVTYYRGYDYWGQGTQVTVSS
- polyreactivity (PSR sort gate): high polyreactivity

Sequence: QVQLVESGGGLVQAGGSLRLSCAASGLIFSHNVMGWYRQAPGKERELVAAISKGGGSTYYADSVKGRFTISRDNAKNTVYLQLNSLIPEDTAVYYCAAPYWSKYRQTEYDYWGQGTQVTVSS
- polyreactivity (PSR sort gate): high polyreactivity

Sequence: QVQLVESGGGLVQAGGSLRLSCAASGLIFSLYAMGWSRQAPGKDRELVADITVDGDGSTYYADSVKGRFTISRDIAKNTVYLQMNSLIPEDTAVYYCAADAYFGWYYYWGQGTQVTVSS
- polyreactivity (PSR sort gate): high polyreactivity

Sequence: QVQLVESGGGLVQAGGSLRLSCAASGLIFSRNAMGWYRQAPGKERELVAAISTGGSTYYADSVKGRFTISRDNAKNTVYLQMNSLKPEATAVYDCAAAPGYIYEYWGQGTQVTVSS
- polyreactivity (PSR sort gate): low polyreactivity

Sequence: QVQLVESGGGLVQAGGSLRLSCAASGLIFSRYTMGWYRQAPGKERELVAAISGRGTSTYYADSVKGRFTISRDNAKNTVYLQMNSLKPEDTAVYYCATSKSYSAFDYWGQGTQVTVSS
- polyreactivity (PSR sort gate): high polyreactivity

Sequence: QVQLVESGGGLVQAGGSLRLSCAASGLIFSSYAMGWYRQAPGKEREFVAAINYNGGRTYYADSVKGRFTISRDNAKNTVYLQMNSLKPEDTAVYYCDGRYGSGGDYWGQGTQVTVSS
- polyreactivity (PSR sort gate): low polyreactivity

Sequence: QVQLVESGGGLVQAGGSLRLSCAASGLIFSSYAMGWYRQAPGKERELVAAITGSGGRTYYADSVKGRFTISRDNAKNTVYLQMNSLKPEDTAVYYCAAKYPAPRYYTGYDYWGQGTQVTVSS
- polyreactivity (PSR sort gate): high polyreactivity

Sequence: QVQLVESGGGLVQAGGSLRLSCAASGLIFSVYGMGWYRQAPGKERELVAAISSRGGSTYYADSVKGRFTISRDLAKNTVYLQMNSLKQEDTAVYYCAARSNYRMDYWGQGTQVTVSS
- polyreactivity (PSR sort gate): high polyreactivity

Sequence: QVQLVESGGGLVQAGGSLRLSCAASGLIFSWYAMGWYRQAPGKERELVAAISSGSSTNYADSVKGRFTISRDNAKNTVYLQRNSLKPEDTAVYYCAARIYYTSRLRMYYWGQGTQVTVSS
- polyreactivity (PSR sort gate): high polyreactivity

Sequence: QVQLVESGGGLVQAGGSLRLSCAASGLIFSYNAMGWYRQAPGKERELVAAISYSGGSTYYADSVKGRYTISRDNAKYTVYLQMNSLKPEDTAVYYCAAVLSPDFYYWGQGTQVTVSS
- polyreactivity (PSR sort gate): high polyreactivity

Sequence: QVQLVESGGGLVQAGGSLRLSCAASGLIFTGNTMGWSRQAPGKETELVADITWSDGSTYYADSVKGRFTISRDTENNTVYLQMNSLKPEDTAVYYCAADSVLDRPVLYLWPWYLGDYWGQGTQVTVSS
- polyreactivity (PSR sort gate): low polyreactivity

Sequence: QVQLVESGGGLVQAGGSLRLSCAASGLIFTPYAMGWYRQAPGKERELVAAINYGGSRTYYADSVKGRFTISRDNAKNTVYLQMNSLKPEDTAVYYCAARGFTLSYVDMYYWGLGTQVTVSS
- polyreactivity (PSR sort gate): high polyreactivity

Sequence: QVQLVESGGGLVQAGGSLRLSCAASGLIFTPYPMGWYRQAPGKERELVAAISVSGGRTYYADSVKGRITISRDNEKNTVYLQMNSLKPEDTAVYYCAASDRYGGRDYWGQGTQVTVSS
- polyreactivity (PSR sort gate): high polyreactivity

Sequence: QVQLVESGGGLVQAGGSLRLSCAASGLIFTRYAMGWYRQAPGKERELVAAISYSGTSTYYADSVKGRFTISRDNAKNTVYLQMNSLKPEDTAVYYCAAAYSRGSGVGRYRLDYWGQGTQVTVSS
- polyreactivity (PSR sort gate): high polyreactivity

Sequence: QVQLVESGGGLVQAGGSLRLSCAASGLIFTWNAMGWYRQAPGKEREFVAAISTGGSTSYADSVKGRFTISRDNAKNTVYLQMNRLKPEDTAVYYCARDSSIWSHGSWYDYWGQGTQVTVSS
- polyreactivity (PSR sort gate): low polyreactivity

Sequence: QVQLVESGGGLVQAGGSLRLSCAASGLIFTYYAMGWYRPAPGKERELVASINYSGGSTYYADSVKGRFTISRDNAKNSVYLHMNSLKPEDTAVYYCAARRVTQTEGPMGYWGQGTQVTVSS
- polyreactivity (PSR sort gate): low polyreactivity

Sequence: QVQLVESGGGLVQAGGSLRLSCAASGLIFVAFAMGWYRQAPGKERELVAAISRSGGSTYYADSVKGRFTISRDNAKNTVYLQMNSLKPEDTAVYYCAKYYGARHVDDDYWGQGTQVTVSS
- polyreactivity (PSR sort gate): high polyreactivity

Sequence: QVQLVESGGGLVQAGGSLRLSCAASGLIFVANAMGWYRQAPGKERELVAAISRSGGITYYADSVKGRFTISRDNAKNTVYLQMNSLKPEDTAVYYCAAELVYFFIYDYWGQGTQVTVSS
- polyreactivity (PSR sort gate): low polyreactivity

Sequence: QVQLVESGGGLVQAGGSLRLSCAASGLIFVAYAMGWYRQAPGKERELVAAISRNGGSTYYADSVKGRFTISRDNAKNTVYLQMNSLKPEDTAVYYCAARYAYYTARYTQVKGLDYWGQGTLVTVSS
- polyreactivity (PSR sort gate): high polyreactivity

Sequence: QVQLVESGGGLVQAGGSLRLSCAASGLIFVDYTMGWYRQAPGKERELVAGISNSGNTNYADSVKGRFTISRDNAKNTVYLQMNSLKPEDTAVYYCAAVYTWYPWYPYDYWGQGTQVTVSS
- polyreactivity (PSR sort gate): low polyreactivity

Sequence: QVQLVESGGGLVQAGGSLRLSCAASGLIFVKNTMGWYRQAPGKERELVAGISQRGGSTYYADSVKGRFTISRDNAKNSVYLQMNILKPEDTAVFYCAAYSRTFEGHRGGYWGQGTQVTVSS
- polyreactivity (PSR sort gate): high polyreactivity

Sequence: QVQLVESGGGLVQAGGSLRLSCAASGLIFVNYAMGWYRQAPGKERELVAAISVSGGSTYYADSVKGRFTISRDNAKNTVYLQMNSLNPEDTAVYYCNAYFRSQRYGYRVDYWGQGTQVTVSS
- polyreactivity (PSR sort gate): high polyreactivity

Sequence: QVQLVESGGGLVQAGGSLRLSCAASGLIFVRYAMGWYRQAPGKERELVATITWSGGTTYADSVKGRFTISRDNAKNTVYLQMNSLKPEDTAVYYCAVEWPAWTDSDYPVGGHAFGYWGQGTQVTVSS
- polyreactivity (PSR sort gate): low polyreactivity

Sequence: QVQLVESGGGLVQAGGSLRLSCAASGLIFVSYAMGWYRPAPGKERELVASITDSDSSTYYADSVKGRFTISRDNAKNTVYLQMNSLKPEDTAVYYCATGGRTEIWYPTLDYWGQGTQVTVSS
- polyreactivity (PSR sort gate): low polyreactivity

Sequence: QVQLVESGGGLVQAGGSLRLSCAASGLIFVWYAMGWYRQAPGKERELVAAISWRGGTRYYADSVKGRFTISRDNAKNTVYLQMTSLKPEDTAVYYCARDPDTYFFPPNGYYSSGFDSWGQGTQVTVSS
- polyreactivity (PSR sort gate): low polyreactivity

Sequence: QVQLVESGGGLVQAGGSLRLSCAASGLIFVWYAMGWYRQAPGKERELVAAISWRGGTTYYADSVKGRFTISRDNAKNTVYLQMNSLKPEDTAVYYCNAVGSQVDYLRYVWYDMDYWGQGTQVTVSS
- polyreactivity (PSR sort gate): low polyreactivity
